The target of assay [1] is T1, Human CD100 (human, UniProt Q92854 22-734, limits assumed).
T1 construct: also called SEMA4D; Hu CD100
T1 sequence (looked up): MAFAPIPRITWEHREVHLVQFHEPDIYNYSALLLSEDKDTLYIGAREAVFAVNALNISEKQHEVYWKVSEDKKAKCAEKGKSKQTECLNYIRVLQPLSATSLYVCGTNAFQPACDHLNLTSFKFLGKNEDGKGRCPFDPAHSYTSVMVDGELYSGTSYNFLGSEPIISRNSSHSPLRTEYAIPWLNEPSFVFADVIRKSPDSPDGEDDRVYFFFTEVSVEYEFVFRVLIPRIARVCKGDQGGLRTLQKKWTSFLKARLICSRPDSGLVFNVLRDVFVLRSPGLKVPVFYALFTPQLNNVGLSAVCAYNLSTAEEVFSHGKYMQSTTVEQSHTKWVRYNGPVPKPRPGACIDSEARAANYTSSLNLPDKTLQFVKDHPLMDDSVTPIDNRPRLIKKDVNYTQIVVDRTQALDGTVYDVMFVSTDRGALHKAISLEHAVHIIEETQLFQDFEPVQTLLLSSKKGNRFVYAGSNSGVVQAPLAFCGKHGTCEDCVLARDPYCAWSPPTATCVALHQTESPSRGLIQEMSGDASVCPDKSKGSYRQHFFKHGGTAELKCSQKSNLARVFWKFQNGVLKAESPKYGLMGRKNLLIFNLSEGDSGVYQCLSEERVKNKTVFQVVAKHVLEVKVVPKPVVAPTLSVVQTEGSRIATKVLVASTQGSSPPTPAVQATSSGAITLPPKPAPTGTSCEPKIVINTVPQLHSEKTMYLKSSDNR
Nature of the assay: affinity testing, reference value of MAb 1808 on the same day; unit not printed (nM as in Table 3); MAb 1808 reference on the day MAb 2220 was measured.

The target of assay [2] is T1, Human CD100. Nature of the assay: affinity testing, reference value of MAb 1808 on the same day; unit not printed (nM as in Table 3); MAb 1808 reference on the day MAb 2208 was measured.
Assay [3] addresses T2, BSA (UniProt P02769 25-607).
T2 construct: Negative control antigen
Nature of the assay: ELISA. On the technique in general: An ELISA detects its analyte on a solid surface through an enzyme-linked reagent.

The target of assay [4] is T3, human serum albumin (human, UniProt P02768 25-609).
T3 construct: Negative control antigen
Description: ELISA.

Assay [5] has as its target T4, huErb2-Fc (human, UniProt P04626 23-652).
T4 construct: Negative control antigen; also called huErb2-Fc antigen
Nature of the assay: ELISA.

For assay [6], the target named is T5, streptavidin (UniProt P22629 37-163, limits assumed).
T5 construct: Negative control antigen
Description: ELISA.

Assay [7] concerns the target T1, Human CD100. Nature of the assay: affinity testing, reference value of MAb 1808 on the same day; unit not printed (nM as in Table 3); MAb 1808 reference on the day MAb 2144 was measured.
In assay [8] the target is T1, Human CD100. Nature of the assay: affinity testing, reference value of MAb 1808 on the same day; unit not printed (nM as in Table 3); MAb 1808 reference on the day MAb 2125 was measured.
The target in assay [9] is T1, Human CD100. Description: affinity testing, reference value of MAb 1808 on the same day; unit not printed (nM as in Table 3); MAb 1808 reference on the day MAb 2139 was measured.
Assay [10] concerns the target T1, Human CD100. Nature of the assay: ELISA method of Friguet et al.; column head 'Affinity (nM) IC50 ELISA'; antigen not named. As for the experimental part: Antibody affinity was measured according to the ELISA method described in Friguet et al. (1985) J Immunol Methods 77(2):305-19.
Assay [11] has as its target T1, Human CD100. Description: affinity testing, reference value of MAb 1808 on the same day; unit not printed (nM as in Table 3); MAb 1808 reference on the day MAb 2216 was measured.
In assay [12] the target is T1, Human CD100. Description: affinity testing, reference value of MAb 1808 on the same day; unit not printed (nM as in Table 3); MAb 1808 reference on the day MAb 2163 was measured.
The target in assay [13] is T1, Human CD100. Description: affinity testing, reference value of MAb 1808 on the same day; unit not printed (nM as in Table 3); MAb 1808 reference on the day MAb 2191 was measured.
Assay [14] deals with T1, Human CD100. Description: affinity testing, reference value of MAb 1808 on the same day; unit not printed (nM as in Table 3); MAb 1808 reference on the day MAb 2202 was measured.
Assay [15] deals with T1, Human CD100. Description: affinity testing, reference value of MAb 1808 on the same day; unit not printed (nM as in Table 3); MAb 1808 reference on the day MAb 2117 was measured.

As usually defined, the Kd is the constant that tells how readily two partners part at equilibrium. Low values mean tighter binding, high ones weaker binding.

T2 sequence (P02769 25-607 limits assumed): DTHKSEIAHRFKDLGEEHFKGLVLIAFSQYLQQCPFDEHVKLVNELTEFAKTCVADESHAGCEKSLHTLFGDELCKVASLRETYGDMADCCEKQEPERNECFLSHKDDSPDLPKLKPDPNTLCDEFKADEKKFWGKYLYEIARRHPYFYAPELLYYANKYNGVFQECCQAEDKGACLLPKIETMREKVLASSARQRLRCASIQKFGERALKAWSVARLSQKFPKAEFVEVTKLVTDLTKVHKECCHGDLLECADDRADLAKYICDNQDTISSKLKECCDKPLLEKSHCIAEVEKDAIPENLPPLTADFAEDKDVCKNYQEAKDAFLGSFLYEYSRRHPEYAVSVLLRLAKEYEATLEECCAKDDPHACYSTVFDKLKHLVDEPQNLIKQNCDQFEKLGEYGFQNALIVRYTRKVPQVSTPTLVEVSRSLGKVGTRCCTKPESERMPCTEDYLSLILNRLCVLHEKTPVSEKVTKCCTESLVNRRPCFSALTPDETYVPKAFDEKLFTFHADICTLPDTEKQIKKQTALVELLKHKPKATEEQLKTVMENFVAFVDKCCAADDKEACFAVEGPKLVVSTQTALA
T3 sequence (P02768 25-609 limits assumed): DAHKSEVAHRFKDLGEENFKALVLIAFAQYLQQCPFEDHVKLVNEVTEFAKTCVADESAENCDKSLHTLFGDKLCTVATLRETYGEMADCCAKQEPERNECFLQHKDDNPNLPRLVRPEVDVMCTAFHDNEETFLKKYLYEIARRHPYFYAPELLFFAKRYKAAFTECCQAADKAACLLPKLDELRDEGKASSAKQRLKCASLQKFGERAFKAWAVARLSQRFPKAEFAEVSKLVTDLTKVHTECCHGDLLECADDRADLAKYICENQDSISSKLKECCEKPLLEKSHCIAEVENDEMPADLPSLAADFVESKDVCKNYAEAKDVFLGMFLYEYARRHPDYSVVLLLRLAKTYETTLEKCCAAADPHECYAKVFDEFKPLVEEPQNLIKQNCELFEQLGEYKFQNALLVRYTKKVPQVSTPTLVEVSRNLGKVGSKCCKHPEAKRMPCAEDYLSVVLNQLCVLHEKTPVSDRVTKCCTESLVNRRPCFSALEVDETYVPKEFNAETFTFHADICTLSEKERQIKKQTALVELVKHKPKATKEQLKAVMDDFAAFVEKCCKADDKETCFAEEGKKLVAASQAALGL
T5 sequence (P22629 37-163 limits assumed): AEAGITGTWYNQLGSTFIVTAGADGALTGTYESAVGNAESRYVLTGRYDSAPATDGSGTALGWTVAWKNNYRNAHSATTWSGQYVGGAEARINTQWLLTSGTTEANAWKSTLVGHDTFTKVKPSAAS

B1: MAb 1808 (antibody, human IgG4, V domains shown)
VH: QVQLVQSGAEVKKPGSSVKVSCKASGYTFTDYYMDWVRQAPGQGLEWMGRVNPYHGGATYNQKFKGRVTITADKSTSTAYMELSSLRSEDTAVYYCAREENSYDGYYGMDYWGQGTLVTVSS
VL: DIVMTQSPLSLPVSPGEPATINCKSSQSLFNSGNQKNYLAWYLQKPGQPPKLLIYGASTRESGVPDRFSGSGSGTDFTLTISSLQAEDVAVYYCQNDHTYPYTFGQGTKLEIK
notes: Humanized BD16, fully human frameworks, human IgG4; also called H1651/L284
For the molecule B1, the Kd in [1] is 0.12 nM; in assay [2] it was 0.12 nM; in [7] it was 0.5 nM; in [8], 0.57 nM; in [9] it was 0.71 nM; in assay [10], 0.13 nM. Also, the Kd amounted to 0.12 nM in assay [11]; 0.12 nM in [12]; 0.13 nM in assay [13]; 0.12 nM in [14]; 0.57 nM in assay [15]. The binding result in [3], in assay [4], in assay [5] and in [6] was “no binding” throughout.
